Biological target: beta-klotho
Test: cell-based or functional assay

B1: dually PEGylated FGF21 mutant E37C, R77C (ligand)
chain: MHPIPDSSPLLQFGGQVRQRYLYTDDAQQTEAHLEIRCDGTVGGAADQSPESLLQLKALKPGVIQILGVKTSRFLCQCPDGALYGSLHFDPEACSFRELLLEDGYNVYQSEAHGLPLHLPGNKSPHRDPAPRGPARFLPLPGLPPAPPEPPGILAPQPPDVGSSDPLSMVGPSQGRSPSYAS
modifications: 20 kDa methoxy-PEG-maleimide on Cys 37 and on Cys 77
- EC50, ELK-luciferase assay: 21 nM

B2: dually PEGylated FGF21 mutant K69C, G120C (ligand)
chain: MHPIPDSSPLLQFGGQVRQRYLYTDDAQQTEAHLEIREDGTVGGAADQSPESLLQLKALKPGVIQILGVCTSRFLCQRPDGALYGSLHFDPEACSFRELLLEDGYNVYQSEAHGLPLHLPCNKSPHRDPAPRGPARFLPLPGLPPAPPEPPGILAPQPPDVGSSDPLSMVGPSQGRSPSYAS
modifications: 20 kDa methoxy-PEG-maleimide on Cys 69 and on Cys 120
- EC50, ELK-luciferase assay: 119 nM

B3: dually PEGylated FGF21 mutant G120C, H125C (ligand)
chain: MHPIPDSSPLLQFGGQVRQRYLYTDDAQQTEAHLEIREDGTVGGAADQSPESLLQLKALKPGVIQILGVKTSRFLCQRPDGALYGSLHFDPEACSFRELLLEDGYNVYQSEAHGLPLHLPCNKSPCRDPAPRGPARFLPLPGLPPAPPEPPGILAPQPPDVGSSDPLSMVGPSQGRSPSYAS
modifications: 20 kDa methoxy-PEG-maleimide on Cys 120 and on Cys 125
- EC50, ELK-luciferase assay: 23 nM

B4: dually PEGylated FGF21 mutant R77C, R175C (ligand)
chain: MHPIPDSSPLLQFGGQVRQRYLYTDDAQQTEAHLEIREDGTVGGAADQSPESLLQLKALKPGVIQILGVKTSRFLCQCPDGALYGSLHFDPEACSFRELLLEDGYNVYQSEAHGLPLHLPGNKSPHRDPAPRGPARFLPLPGLPPAPPEPPGILAPQPPDVGSSDPLSMVGPSQGCSPSYAS
modifications: 20 kDa methoxy-PEG-maleimide on Cys 77 and on Cys 175
- EC50, ELK-luciferase assay: 62 nM

B5: dually PEGylated FGF21 mutant E37C, H125C (ligand)
chain: MHPIPDSSPLLQFGGQVRQRYLYTDDAQQTEAHLEIRCDGTVGGAADQSPESLLQLKALKPGVIQILGVKTSRFLCQRPDGALYGSLHFDPEACSFRELLLEDGYNVYQSEAHGLPLHLPGNKSPCRDPAPRGPARFLPLPGLPPAPPEPPGILAPQPPDVGSSDPLSMVGPSQGRSPSYAS
modifications: 20 kDa methoxy-PEG-maleimide on Cys 37 and on Cys 125
- EC50, ELK-luciferase assay: 64 nM

B6: dually PEGylated FGF21 mutant E91C, R175C (ligand)
chain: MHPIPDSSPLLQFGGQVRQRYLYTDDAQQTEAHLEIREDGTVGGAADQSPESLLQLKALKPGVIQILGVKTSRFLCQRPDGALYGSLHFDPCACSFRELLLEDGYNVYQSEAHGLPLHLPGNKSPHRDPAPRGPARFLPLPGLPPAPPEPPGILAPQPPDVGSSDPLSMVGPSQGCSPSYAS
modifications: 20 kDa methoxy-PEG-maleimide on Cys 91 and on Cys 175
- EC50, ELK-luciferase assay: 46 nM

B7: dually PEGylated FGF21 mutant E37C, R175C (ligand)
chain: MHPIPDSSPLLQFGGQVRQRYLYTDDAQQTEAHLEIRCDGTVGGAADQSPESLLQLKALKPGVIQILGVKTSRFLCQRPDGALYGSLHFDPEACSFRELLLEDGYNVYQSEAHGLPLHLPGNKSPHRDPAPRGPARFLPLPGLPPAPPEPPGILAPQPPDVGSSDPLSMVGPSQGCSPSYAS
modifications: 20 kDa methoxy-PEG-maleimide on Cys 37 and on Cys 175
- EC50, ELK-luciferase assay: 50 nM

B8: dually PEGylated FGF21 mutant E37C, E91C (ligand)
chain: MHPIPDSSPLLQFGGQVRQRYLYTDDAQQTEAHLEIRCDGTVGGAADQSPESLLQLKALKPGVIQILGVKTSRFLCQRPDGALYGSLHFDPCACSFRELLLEDGYNVYQSEAHGLPLHLPGNKSPHRDPAPRGPARFLPLPGLPPAPPEPPGILAPQPPDVGSSDPLSMVGPSQGRSPSYAS
modifications: 20 kDa methoxy-PEG-maleimide on Cys 37 and on Cys 91
- EC50, ELK-luciferase assay: 36 nM

B9: dually PEGylated FGF21 mutant E37C, G120C (ligand)
chain: MHPIPDSSPLLQFGGQVRQRYLYTDDAQQTEAHLEIRCDGTVGGAADQSPESLLQLKALKPGVIQILGVKTSRFLCQRPDGALYGSLHFDPEACSFRELLLEDGYNVYQSEAHGLPLHLPCNKSPHRDPAPRGPARFLPLPGLPPAPPEPPGILAPQPPDVGSSDPLSMVGPSQGRSPSYAS
modifications: 20 kDa methoxy-PEG-maleimide on Cys 37 and on Cys 120
- EC50, ELK-luciferase assay: 55 nM

B10: dually PEGylated FGF21 mutant K69C, H125C (ligand)
chain: MHPIPDSSPLLQFGGQVRQRYLYTDDAQQTEAHLEIREDGTVGGAADQSPESLLQLKALKPGVIQILGVCTSRFLCQRPDGALYGSLHFDPEACSFRELLLEDGYNVYQSEAHGLPLHLPGNKSPCRDPAPRGPARFLPLPGLPPAPPEPPGILAPQPPDVGSSDPLSMVGPSQGRSPSYAS
modifications: 20 kDa methoxy-PEG-maleimide on Cys 69 and on Cys 125
- EC50, ELK-luciferase assay: 164 nM

B11: dually PEGylated FGF21 mutant G120C, R175C (ligand)
chain: MHPIPDSSPLLQFGGQVRQRYLYTDDAQQTEAHLEIREDGTVGGAADQSPESLLQLKALKPGVIQILGVKTSRFLCQRPDGALYGSLHFDPEACSFRELLLEDGYNVYQSEAHGLPLHLPCNKSPHRDPAPRGPARFLPLPGLPPAPPEPPGILAPQPPDVGSSDPLSMVGPSQGCSPSYAS
modifications: 20 kDa methoxy-PEG-maleimide on Cys 120 and on Cys 175
- EC50, ELK-luciferase assay: 118 nM

B12: dually PEGylated FGF21 mutant R77C, G120C (ligand)
chain: MHPIPDSSPLLQFGGQVRQRYLYTDDAQQTEAHLEIREDGTVGGAADQSPESLLQLKALKPGVIQILGVKTSRFLCQCPDGALYGSLHFDPEACSFRELLLEDGYNVYQSEAHGLPLHLPCNKSPHRDPAPRGPARFLPLPGLPPAPPEPPGILAPQPPDVGSSDPLSMVGPSQGRSPSYAS
modifications: 20 kDa methoxy-PEG-maleimide on Cys 77 and on Cys 120
- EC50, ELK-luciferase assay: 34 nM

B13: dually PEGylated FGF21 mutant K69C, E91C (ligand)
chain: MHPIPDSSPLLQFGGQVRQRYLYTDDAQQTEAHLEIREDGTVGGAADQSPESLLQLKALKPGVIQILGVCTSRFLCQRPDGALYGSLHFDPCACSFRELLLEDGYNVYQSEAHGLPLHLPGNKSPHRDPAPRGPARFLPLPGLPPAPPEPPGILAPQPPDVGSSDPLSMVGPSQGRSPSYAS
modifications: 20 kDa methoxy-PEG-maleimide on Cys 69 and on Cys 91
- EC50, ELK-luciferase assay: 69 nM

B14: dually PEGylated FGF21 mutant E37C, K69C (ligand)
chain: MHPIPDSSPLLQFGGQVRQRYLYTDDAQQTEAHLEIRCDGTVGGAADQSPESLLQLKALKPGVIQILGVCTSRFLCQRPDGALYGSLHFDPEACSFRELLLEDGYNVYQSEAHGLPLHLPGNKSPHRDPAPRGPARFLPLPGLPPAPPEPPGILAPQPPDVGSSDPLSMVGPSQGRSPSYAS
modifications: 20 kDa methoxy-PEG-maleimide on Cys 37 and on Cys 69
- EC50, ELK-luciferase assay: 67 nM

B15: dually PEGylated FGF21 mutant R77C, E91C (ligand)
chain: MHPIPDSSPLLQFGGQVRQRYLYTDDAQQTEAHLEIREDGTVGGAADQSPESLLQLKALKPGVIQILGVKTSRFLCQCPDGALYGSLHFDPCACSFRELLLEDGYNVYQSEAHGLPLHLPGNKSPHRDPAPRGPARFLPLPGLPPAPPEPPGILAPQPPDVGSSDPLSMVGPSQGRSPSYAS
modifications: 20 kDa methoxy-PEG-maleimide on Cys 77 and on Cys 91
- EC50, ELK-luciferase assay: 26 nM

B16: dually PEGylated FGF21 mutant E91C, G120C (ligand)
chain: MHPIPDSSPLLQFGGQVRQRYLYTDDAQQTEAHLEIREDGTVGGAADQSPESLLQLKALKPGVIQILGVKTSRFLCQRPDGALYGSLHFDPCACSFRELLLEDGYNVYQSEAHGLPLHLPCNKSPHRDPAPRGPARFLPLPGLPPAPPEPPGILAPQPPDVGSSDPLSMVGPSQGRSPSYAS
modifications: 20 kDa methoxy-PEG-maleimide on Cys 91 and on Cys 120
- EC50, ELK-luciferase assay: 54 nM

B17: dually PEGylated FGF21 mutant E91C, H125C (ligand)
chain: MHPIPDSSPLLQFGGQVRQRYLYTDDAQQTEAHLEIREDGTVGGAADQSPESLLQLKALKPGVIQILGVKTSRFLCQRPDGALYGSLHFDPCACSFRELLLEDGYNVYQSEAHGLPLHLPGNKSPCRDPAPRGPARFLPLPGLPPAPPEPPGILAPQPPDVGSSDPLSMVGPSQGRSPSYAS
modifications: 20 kDa methoxy-PEG-maleimide on Cys 91 and on Cys 125
- EC50, ELK-luciferase assay: 32 nM

B18: dually PEGylated FGF21 mutant R77C, H125C (ligand)
chain: MHPIPDSSPLLQFGGQVRQRYLYTDDAQQTEAHLEIREDGTVGGAADQSPESLLQLKALKPGVIQILGVKTSRFLCQCPDGALYGSLHFDPEACSFRELLLEDGYNVYQSEAHGLPLHLPGNKSPCRDPAPRGPARFLPLPGLPPAPPEPPGILAPQPPDVGSSDPLSMVGPSQGRSPSYAS
modifications: 20 kDa methoxy-PEG-maleimide on Cys 77 and on Cys 125
- EC50, ELK-luciferase assay: 30 nM

— US20160244497A1 (Amgen, published 2016)
